Test results: US20240269276A1
Like-named read-outs stand apart in the source and are kept apart here.

Assays:
[1] = target: human PD-L1 on CHO-K1 cells overexpressing human PD-L1 (human) (UniProt Q9NZQ7); test: flow cytometry on CHO-K1 cells overexpressing human PD-L1 (CHO-K1/hPD-L1); isotype control [continued) D]
[2] = target: human PD-L1 on CHO-K1 cells overexpressing human PD-L1 (human) (UniProt Q9NZQ7); test: flow cytometry on CHO-K1 cells overexpressing human PD-L1 (CHO-K1/hPD-L1); isotype control, EC50 given as N.A.
[3] = target: cynomolgus monkey PD-L1 on CHO-K1 cells overexpressing cynomolgus monkey PD-L1 (cynomolgus monkey) (UniProt G7PSE7); test: flow cytometry on CHO-K1 cells overexpressing cynomolgus monkey PD-L1 (CHO-K1/cynoPD-L1); isotype control, EC50 given as N.A.
Chain of cynomolgus monkey PD-L1 on CHO-K1 cells overexpressing cynomolgus monkey PD-L1 (cynomolgus monkey) (G7PSE7 entry or part of it limits assumed): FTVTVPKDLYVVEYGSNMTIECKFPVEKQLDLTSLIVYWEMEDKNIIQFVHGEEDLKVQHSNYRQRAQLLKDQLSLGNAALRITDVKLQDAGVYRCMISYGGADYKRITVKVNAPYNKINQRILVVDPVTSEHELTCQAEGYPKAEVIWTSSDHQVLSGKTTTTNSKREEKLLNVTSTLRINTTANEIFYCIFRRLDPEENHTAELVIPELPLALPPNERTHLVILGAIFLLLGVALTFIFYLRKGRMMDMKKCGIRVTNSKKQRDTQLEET

[4] = target: cynomolgus monkey PD-L1 on CHO-K1 cells overexpressing cynomolgus monkey PD-L1 (cynomolgus monkey) (UniProt G7PSE7); test: as above; remark: listed apart in the source
[5] = target: cynomolgus monkey PD-L1 on CHO-K1 cells overexpressing cynomolgus monkey PD-L1 (cynomolgus monkey) (UniProt G7PSE7); test: as above; remark: listed apart in the source
[6] = target: human PD-L1 on CHO-K1 cells overexpressing human PD-L1 (human) (UniProt Q9NZQ7); test: flow cytometry on CHO-K1 cells overexpressing human PD-L1 (CHO-K1/hPD-L1); isotype control, fit value printed for a curve that stays at the baseline [continued) D]

Chain of human PD-L1 on CHO-K1 cells overexpressing human PD-L1 (human) (Q9NZQ7 19-290): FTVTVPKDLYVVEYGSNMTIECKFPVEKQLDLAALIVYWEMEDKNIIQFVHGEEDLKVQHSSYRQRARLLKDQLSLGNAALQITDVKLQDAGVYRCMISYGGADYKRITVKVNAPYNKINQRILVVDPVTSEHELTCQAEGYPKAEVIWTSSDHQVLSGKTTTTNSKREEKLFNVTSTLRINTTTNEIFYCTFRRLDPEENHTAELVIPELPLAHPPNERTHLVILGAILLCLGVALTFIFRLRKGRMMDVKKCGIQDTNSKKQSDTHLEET

Maximum MFI [1]: 595 MFI
Maximum MFI [2]: 86 MFI
Maximum MFI [3]: 112 MFI
Maximum MFI [4]: 123 MFI
Maximum MFI [5]: 125 MFI
EC50 [6]: 0.0759 µM
Substance: hIgG1 (antibody)
